Results taken from patent US6780974B2, “Synthetic DNA encoding an orange seapen-derived green fluorescent protein with codon preference of mammalian expression systems and biosensors” (Cellomics, Inc., priority 2001, dated 2004).

B1: hPtFP DNA: synthetic DNA encoding hPtFP with codons favored for mammalian expression systems (nucleic acid)
DNA: AAGCTTGCCACCATGGTGAACCGGAACGTGCTGAAGAACACCGGCCTGAAGGAGATCATGAGCGCCAAGGCCAGCGTGGAGGGCATCGTGAACAACCACGTGTTCAGCATGGAGGGCTTCGGCAAGGGCAACGTGCTGTTCGGCAACCAGCTGATGCAGATCCGGGTGACCAAGGGCGGCCCTCTGCCCTTCGCCTTCGACATCGTGAGCATCGCCTTCCAGTACGGCAACCGGACCTTCACCAAGTATCCCGACGACATCGCCGACTACTTCGTGCAGAGCTTCCCTGCCGGCTTCTTCTACGAGCGGAACCTGCGGTTCGAGGACGGCGCCATCGTGGACATCCGGAGCGACATCAGCCTGGAGGACGACAAGTTCCACTACAAGGTGGAGTACCGCGGCAACGGCTTCCCTAGCAACGGCCCTGTGATGCAGAAGGCCATCCTGGGCATGGAGCCCAGCTTCGAGGTGGTGTACATGAACAGCGGCGTGCTGGTGGGCGAGGTGGACCTGGTGTACAAGCTGGAGAGCGGCAACTACTACAGCTGCCACATGAAGACCTTCTACCGGAGCAAGGGCGGCGTGAAGGAGTTCCCTGAGTACCTATTCATCCACCACCGGCTGGAGAAGAACTACGTGGAGGAGGGCAGCTTCGTGGAGCAGCACGAGACCGCCATCGCCCAGCTGACCACCATCGGCAAGCCTCTGGGCAGCCTGCACGAGTGGGTGTAAAGCGGCCGCAAGCTTGCCACCATGGTGAACCGGAACGTGCTGAAGAACACCGGCCTGAAGGAGATCATGAGCGCCAAGGCCAGCGTGGAGGGCATCGTGAACAACCACGTGTTCAGCATGGAGGGCTTCGGCAAGGGCAACGTGCTGTTCGGCAACCAGCTGATGCAGATCCGGGTGACCAAGGGCGGCCCTCTGCCCTTCGCCTTCGACATCGTGAGCATCGCCTTCCAGTACGGCAACCGGACCTTCACCAAGTATCCCGACGACATCGCCGACTACTTCGTGCAGAGCTTCCCTGCCGGCTTCTTCTACGAGCGGAACCTGCGGTTCGAGGACGGCGCCATCGTGGACATCCGGAGCGACATCAGCCTGGAGGACGACAAGTTCCACTACAAGGTGGAGTACCGCGGCAACGGCTTCCCTAGCAACGGCCCTGTGATGCAGAAGGCCATCCTGGGCATGGAGCCCAGCTTCGAGGTGGTGTACATGAACAGCGGCGTGCTGGTGGGCGAGGTGGACCTGGTGTACAAGCTGGAGAGCGGCAACTACTACAGCTGCCACATGAAGACCTTCTACCGGAGCAAGGGCGGCGTGAAGGAGTTCCCTGAGTACCTATTCATCCACCACCGGCTGGAGAAGAACTACGTGGAGGAGGGCAGCTTCGTGGAGCAGCACGAGACCGCCATCGCCCAGCTGACCACCATCGGCAAGCCTCTGGGCAGCCTGCACGAGTGGGTGTAAAGCGGCCGC
B2: hPtFP: full length humanized Ptilosarcus gurneyi green fluorescent protein, 239 amino acid residues, valine added at position 2 (protein)
chain: MVNRNVLKNTGLKEIMSAKASVEGIVNNHVFSMEGFGKGNVLFGNQLMQIRVTKGGPLPFAFDIVSIAFQYGNRTFTKYPDDIADYFVQSFPAGFFYERNLRFEDGAIVDIRSDISLEDDKFHYKVEYRGNGFPSNGPVMQKAILGMEPSFEVVYMNSGVLVGEVDLVYKLESGNYYSCHMKTFYRSKGGVKEFPEYHFIHHRLEKTYVEEGSFVEQHETAIAQLTTIGKPLGSLHEWV

Columns and labels:
Type in all cases: cell-based
COS1 cells [1] = assay: Fluorescence of COS1 cells transiently transfected with humanized versus wild type PtFP DNA (ARRAYSCAN II); details: transient transfection
Source text: The difference at the nucleotide level (versus codon level) is that the hPtFP open reading frame (including the stop codon) contains 720 nucleotides, whereas the PtFP open reading frame (including the stop codon) contains 717 nucleotides. It will be appreciated by those skilled in the art, that without counting the extra valine introduced into hPtFP of the present invention, there are 166 nucleotide differences between the 717 nucleotides compared, or 23.15 percent difference (or 76.85% identity). If the stop codon is excluded in this comparison, there are 165 nucleotide differences in the 714 nucleotides compared, or 23.10 percent difference (or 76.9% identity). […]
To compare the expression of wild type Ptilosarcus gurneyi fluorescent protein DNA with humanized Ptilosarcus gurneyi green fluorescent protein synthetic DNA as described above, an expression vector for the wild type Ptilosarcus gurneyi DNA was constructed by cloning the wild type PtFP into the expression vector M2, and thus, these two expression vectors under comparison differed only in their coding regions. […] The purified DNA preps were quantitated by reading the optic absorption at 260 nm (nanometers) with a HP8453 UV—visible spectrophotometer (Agilent Technologies, Palo Alto, Calif., USA) and calculated based on 1 O.D.=[…] DNA. […]

HEK293 cells = assay: Percentage of hPtFP-positive cells in stably transfected HEK293 mixed population during passage (growth / toxicity); details: for toxicity to host cells: stably transfected mammalian host cells (HEK293)
Protocol: The cells were co-transfected with the hPtFP construct and pSV2-neo (Cat #37149, ATCC, Manassas, Va., USA) with FUGENE 6 transfection reagent (Roche Molecular Biochemicals, Indianapolis, Ind., USA) following the manufacturer's instructions. Two days after transfection, cells were treated with 0.4 mg/ml (milligram/milliliter) G418 in normal growth medium. After treating with G418 for two weeks, drug resistant cells were isolated or pooled. A mixture of stably transfected HEK293 mixed population (in which about 30% of the cells expressing hPtFP of this invention) were plated out in 96 cell micro plates. After 2, 4, or 6 days incubation, the cells were fixed with 3.7% formaldehyde for 20 minutes at room temperature (25° Centigrade). The percentage of positive cells was quantitated with ARRAYSCAN II instrument, as described herein.
To compare the growth rates of cells expressing or not expressing hPtFP, a mixture of stably transfected HEK293 mixed population (in which about 30% of the cells expressing hPtFP of this invention) were plated out in 96-well micro plates. After 2, 4, or 6 days incubation, the cells were fixed with 3.7% (percent) formaldehyde for twenty minutes at room temperature (25 degrees Centigrade). The percentage of positive cells was quantitated with ARRAYSCAN II instrument, as described herein.

COS1 cells [2] = assay: In situ absorption and emission spectra of live COS1 cells expressing hPtFP; details: in COS-1 cells
Protocol: Forty-eight hours after initial transfection with the synthetic green fluorescent protein DNA of the present invention, COS1 cells were trypsinized and were kept in suspension. The absorption and emission spectra of the live cells expressing the hPtFP of the present invention were then measured, as shown in FIG. 2.

Molecule | number and brightness of expressing cells compared with wild type PtFP DNA (visual observation) (COS1 cells [1]) | fluorescent signal compared with wild type Ptilosarcus gurneyi green fluorescent protein (COS1 cells [1]; identical amount of DNA, forty hours post-transfection, intensity in nuclear area (FIG. 3)) | toxicity to host cells (HEK293 cells) | absorption and emission spectra compared with wildtype Ptilosarcus gurneyi (COS1 cells [2]) | percentage of positive cells during cell passage (HEK293 cells; HEK293 mixed population, about 30% expressing hPtFP, 2, 4 or 6 days incubation, no selection (FIG. 5))
B1 | more hPtFP expressing cells and brighter cells than the wild type | stronger fluorescent signals than the wild type | does not have toxic effects on the host cells |  | 
B2 |  |  | not toxic to the cells | unchanged | did not change
